According to article PMC8989513:

What was measured:
Experiment in all cases: BLI
[1] = biological target: C-terminally biotinylated MYC(1–88)ΔMB0
[2] = biological target: C-terminally biotinylated MYC(1–88)
[3] = biological target: MYC(1–88 F23A), C-terminally biotinylated
[4] = biological target: MYC(1–88 P21A), C-terminally biotinylated
[5] = biological target: MYC(1–88 Y22A), C-terminally biotinylated
[6] = biological target: biotinyl-MB0 peptide (MYC Box 0, aa 16–33)
[7] = biological target: MYC(1–88 Y24A), C-terminally biotinylated

Kd [1]: > 100 µM
Kd [2]: 3.5 µM
fold change of KD against wild-type MYC(1–88) [3]: > 5 fold
fold change of KD against wild-type MYC(1–88) [4]: > 5 fold
fold change of KD against wild-type MYC(1–88) [5]: > 5 fold
Kd [6]: 9.4 µM
fold change of KD against wild-type MYC(1–88) [7]: > 5 fold
B1: PNUTS(1–148), PNUTS amino-terminal domain (PAD) (domain or fragment)
chain: MGSGPIDPKELLKGLDSFLNRDGEVKSVDGISKIFSLMKEARKMVSRCTYLNILLQTRSPEILVKFIDVGGYKLLNNWLTYSKTTNNIPLLQQILLTLQHLPLTVDHLKQNNTAKLVKQLSKSSEDEELRKLASVLVSDWMAVIRSQS
